According to the DeepSol protein solubility set:

Assay: soluble on expression in E. coli; label from the status in PepcDB or PDB records

Question: For “MVQEAPAALPTEPGPSPVPAFLGKLWALVGDPGTDHLIRWSPSGTSFLVSDQSRFAKEVLPQYFKHSNMASFVRQLNMYGFRKVVSIEQGGLLRPERDHVEFQHPSFVRGREQLLERVRRKVPALRGDDGRWRPEDLGRLLGEVQALRGVQESTEARLRELRQQNEILWREVVTLRQSHGQQHRVIGKLIQCLFGPLQAGPSNAGGKRKLSLMLDEGSSCPTPAKFNTCPLPGALLQDPYFIQSPLPETNLGLSPHRARGPIISDIPEDSPSPEGTRLSPSSDGRREKGLALLKEEPASPGGDGEAGLALAPNECDFCVTAPPPLPVAVVQAILEGKGSFSPEGPRNAQQPEPGDPREIPDRGPLGLESGDRSPESLLPPMLLQPPQESVEPAGPLDVLGPSLQGREWTLMDLDMELSLMQPLVPERGEPELAVKGLNSPSPGKDPTLGAPLLLDVQAALGGPALGLPGALTIYSTPESRTASYLGPEASPSP”, which “soluble on expression in E. coli” value is on record?
Answer: soluble

Question: With “MSLFLQPLLAKKIIAEVKKMYEREVIIVNTDGLIMAGTNDERVGQFHEGALICAKERRSVIITKEDETRLKGVKAGINLPVFFDHDVISVFGLTGEPAEIQPFGELLRKMTELFIKESRHLEQSQWRERMLESFMIDWLQLKEWSPSFLEKAQLLGVDLSSRRQMILIQGYEWSPHDIEQMARSWKSSYPADLFIRWGNERILINHEVPQHEQRDRLLRKILHICSFANTASSQYTAAGAGRAVASSSLTDSYEQAEKALAVSLKRKTPIFEEDLKLDMCLTEISPGTRNEFPQRVLGKALEHQELMNTIRTFFHHDLSLKQTAEDMHIHINTLRYRLAKAEQLTGLRFDRTEDVVTMYVALYFLDQDTKEGGSHHHHHH” as the sequence, how does the “soluble on expression in E. coli” value read?
Answer: soluble

Question: With “SLVELQEIFDVSYGSKLDLNKMSSFNPTINFVGRSGKNNGVTASVDLLKNTKPYPAGLLTVALGGSVLSTFLQNKPFYTAQNVAVLNPKTEMTEQQKLFYCAAIFANAYRFSACGREANRTLRQLFVPSLDEIPSWVESVNLNPSAGVTEPKLKESLDLPVVRQSKRLDEIFTIQNGIAATKLKEFEQRQKDTVVYIRPASTQARTLRSYIARDSVDEKHIFPCHTLFTSTNGEGSHTYSYVSTCEFVANSDVAVLTPIQSDMPIEVKLYYAKCITANRYLFSYGRKPKGEKLKSIMLPYFDQQEDFDYICRFIHTLLFSNNL” as the sequence, how does the “soluble on expression in E. coli” value read?
Answer: not soluble

Question: For “MVKSIVILIETVTMKIPAVYSDGSFKTFNDSETTAQKLVDSGVVNTFAFGPTLVENGKVAVSENEEVGQDMADNPRTAIVVNEESDRSVHYIVIVSDGRTSESSGLTLYEMAELMKSYGVMTGYNLDVGDSSTMYSLEHHHHHH”, which “soluble on expression in E. coli” value is on record?
Answer: not soluble

Question: For “MGSDKIHHHHHHMKFPGQRKSKHYFPVKNRDPLLAQLTLQPQHISTHISGIDQTLVDIEAKVGDDLLSRYALPKGNSTLIDDEKAHQLYTELKSSELISDEFAGGTIGNTVHNYSILADDRSVLFGVMSNHIEVGSYAYRYLCNTSSKVDLNFLQPVDGPIGRCFTLISECGERTFAISKGSMDKLTPEYIDQEIVQTSSALVLTAYLMRASGGDKITDAALKAIEYAKAADVPVVLTLGTRFLIEEDPQWWIDFIKENVTILAMNEDEGEALTGFKDPLSASNAALEWCDMVLTTAGPLGLYTAGYTEDSEKRETSHTLLPGAIPEFNRYEFSRPKLKRDCQTPIKVFAHISPYMGGPEIIRNTNGAGDGALAALLHDLASNTYHKANVPGSSKHKRDGLCYSSFSQICKYANRVAYEVLAQHSPRLSRGLPEREDSLEEAYWER”, which “soluble on expression in E. coli” value is on record?
Answer: not soluble

Question: With “MNIVNKDSKNTFTRMCIGEAIIKLLKDTDFDKIRITSVAKCAGVSRITFYKYYESIHDALCDYLNIIIIEYLEECANNPENGSFLDYSHILFALEFFNRYKDYFLTLSRCGLHSILINSINNFMSEHFTNPKNYSEYRLYCYSGGLLNTFLKWEENGCDCDAGEIARTLEELYS” as the sequence, how does the “soluble on expression in E. coli” value read?
Answer: not soluble

Question: With “MGSDKIHHHHHHMENLLEVQQLNKSYKNSEFQLTDITFSVKPGEVVGLIGKNGSGKSTLINTLVGNRHKDNGSLKFFNKEVTENDFKYKEHLGVVFDDLRVPDKLTLQSINKVFTEIYDAWNSDTFFSLIKAFELPTNNQIKTFSRGMRMKAALTIALSHDAKLLILDEATAGMDVSGREHVLEILEDYLGDDRAILISSHISEDIEQLATQLVFMRDGRIILKESKEVLLSQYGIIDQPVEHFNISNEYLIATRRRNDRQISLVNNYQKVPDAQPLKTIDDATKIIMRGEV” as the sequence, how does the “soluble on expression in E. coli” value read?
Answer: not soluble

Question: Which “soluble on expression in E. coli” value does the source give for “MGSDKIHHHHHHMILRKKKSLNAGPINGTGEGVAHSKRWYVALVRMHHEKKVSEHLDKMGIENFVPVQQELHQWSDRRKLVTSVLLPMMVFVHADPKERMEVLSFSTVSRYMVMRGESSPAVIPDEQMARFRFMLDYSEESISMNSSPLARGEKVRVIKGPLTGLVGELVNVDGRSKIAVRLNMLGCACVDMPVGYVEPIMAAV” here?
Answer: not soluble

Question: With “GSHMEKRTPHTRLSQVKKLVNAGQVRTTRSALLNADELGLDFDGMCNVIIGLSESDFYKSMTTYSDHTIWQDVYRPRLVTGQVYLKITVIHDVLIVSFKEK” as the sequence, how does the “soluble on expression in E. coli” value read?
Answer: soluble

Question: With “MNRLERIIQLVSQKKKIDVNSLSEQLDVSKVTIRKDLDKLESKGLLRREHGYAVLNSGDDLNVRLSYNYNIKRRIAEKAAELVQDNDTIMIESGSTCALLAEVLCQTKRNIKVITNSCFIANYIRQYSSCQIILLGGYYQPNSEVTVGPLLKEMISLFHVNRVFVGTDGFNKDLGFMGKDMMRSEGVRYMADAAEEVVILTDSSKFSKTSLVHQLSLADVNRVITDQALDKQTQELLSASGLVLDFVSLEHHHHHH” as the sequence, how does the “soluble on expression in E. coli” value read?
Answer: not soluble

Question: For “MNEIHQPLARRVWRSNVDEEMARMAECLKRFPLIAFDTEYPGIIFRTYFDSSSDECYRAMKGNVENTKLIQCGFTLFNAKGEIGGVWEINFSNFGDPSDTRNELSIEFLRRHGLDLQKIRDEGVDMFGYGFFPKLMTVFRSQKHVEFVTFQGAYDFAYFLSILNHGKLPETHGEFATEVVKVFGQVYDTKVMAGFCEGLGEHLGLSKLAQLLQITRVGRAHHAGSDSLMTALVFIKLKHVYEDSRFARGLIYGIGKSNLVAAPAPAPVPEPTLPLMCQQNVASYPVFHNGYVQNYEQPQLVSYDPSGAPWAFCNATGTYVQLTHLPASTFAYPSQTPSATVDYLGPVPNYYNNNACYVVE”, which “soluble on expression in E. coli” value is on record?
Answer: soluble

Question: For “MGSDKIHHHHHHMTPRSGKTTAGHFRYARYLIESEDENHLVTAYNQEQAYRLFIDGDGTGLMHIFDGNCEIKHDERGDHLLITTPKGNKRVYYKGGGKVNSVGAITGMSLGSVVFCEINLLHMDFIQECFRRTWAAKLRYHLADLNPPAPQHPVIKDVFDVQNTRWTHWTMDDNPILTAERKQNIINSLKKNPYLYKRDVLGQRVMPQGVIYGLFDTEKNVLDALIGEPVEMYFCADGGQSDATSMSCNIVTRVRDNGRISFRLNRVAHYYHSGADTGQVKAMSTYALELKVFIDWCVKKYQMRYTEVFVDPACKSLREELHKLGVFTLGAPNNSKDVSSKAKGIEVGIERGQNIISDGAFYLVNHSEEEYDHYHFLKEIGLYSRDDNGKPIDKDNHAMDEFRYSVNVFVHRYYN”, which “soluble on expression in E. coli” value is on record?
Answer: not soluble

Question: With “MRTLLITGPGGSGRTTVAAATALRASRTGTRTLVLSADRTDTLGAALGVPTGGAPVEAAPGLTAWRPDAADRFRADLTAFQDRAATALDFLGAARLDAEELTPLPGAEELALLRALRDAALSEAYDLLVVDLPPAPQALALLALPEELRRYLRRLLPPERQAARALRPVLGRLAGVPMPADWLYETAARWDVELAAVEAVVEDRATTVRLVAEPGPAGADAVRAAATGFALRAVRIDTLIANRLLPEEADDAWSAGLAAQQRKFLEEWRGEYRLHELPHLGHDPRGADDLAALAVPGVNDAPGPVEWSVADRLADDGVLVWHIPLPGAIRDELDLLRRGDELVVTAGQFRRIVPLPSALRRCTVAGAALREGELRIRFAPDPDLWPRERLEHHHHHH” as the sequence, how does the “soluble on expression in E. coli” value read?
Answer: soluble

Question: With “MSRCPEDSRTGNGRNGAPDPGELSAMVRKLEIRSRRLVNELFSGEYHSSFKGRGIEFSQVREYQYGDDVRTIDWNTSAHKNDLYVKIFTEERERILMLVLDGSGSMLFGSGRLKKELAAEVSAILAFSAVQNNDMVGLLVFSDTVETYIPPRKGRAHALVILNEIFSMRQCGRKTDIDAALSFLRRTQKRKSIIFLLTDLLGSEYERGMKLLNARHEFVLIHIGDPLDHELPHSGLLDLVDPETGERLTIDAGSRAFLARYAKEQRAKREAVQRQLSRMKVDAVFLDTGKSIIGGLNAFFRHRERKV” as the sequence, how does the “soluble on expression in E. coli” value read?
Answer: not soluble

Question: With “MAHHHHHHMVFFFPSFFFHNHDRELSCGKVSKAFIYIKKIHKMRRVSSLKEYNSLKEEAGNGLGLVVHFSASWCEPCKNVGSMLEGYLSQYNQKVLFAEVDADLVTNVCEAENVECVPFIVFFRTSSRERAQERVADVVGGKLDHLEMNLVSLYGNGHDTRESFPDLNEYLKYLTSRKGVVAFITGTPSRPRCGFTGRLVEIFYELGIKFIYYDVWASDEVCEGLKKYSEWPTYPQVYVDGELIGGYDICSQLKESGELKAILKH” as the sequence, how does the “soluble on expression in E. coli” value read?
Answer: soluble

Question: For “MGSDKIHHHHHHMKRFLFSFLFGLVLLSGCDFEHEIIEILDMIVSEDQSTDVVAPPTSGEATITFFDVGQGDSTLIRSENYTVLVDTGRHDSDAIFTHLEKQQIDQIDLLILTHPHADHIGNADEIVRLYSPEEVWIDGNEATSKTFENVIDALLDSEAEVVEPRAGDVYERGDFLFEIVNPTKLTGDLNNDSIAFRLTYGDVRVVMTGDAEEAAEQEMVASGTDLEADIFKVAHHGSSTSNQPFFLDEIEPTVAIYSAGEDNSYGHPHREVTSLLNERGIDIFGTDIHGTVLITTDGHTYSIQTEH”, which “soluble on expression in E. coli” value is on record?
Answer: not soluble

Question: Which “soluble on expression in E. coli” value does the source give for “MYYVGIMSGTSLDGIDAVLVDFSGPSFSLLHTCYIPYDQSLRAALLGLNQAGENELHRAAILSNQLSGWYAQAVGRLLEKSGIDPGEIIAVGCHGQTIRHCPQPENGYSIQLVNGALLAELTGMTVVTDFRSRDIAAGGQGAPLVPAFHHEMFAHRDIHRLIINIGGITNITSLPVSGGVNGFDCGPGNMLMDAWCLKHTGMTYDHNGSWAESGRVINPLLENLLNFPYFSLPPPKSTGREMFSLDWLQPCLRGDEATQDVQSTLLQLTVRTITDSVETYYPAVRELYLCGGGAHNGTLVTRLQQQLPGRRINLTDALGIEADWVEACAFAWLARQSIERAPGNLPAVTGATGSRTLGAIYPA” here?
Answer: not soluble

Question: For “MGSDKIHHHHHHMRLTILGSSGSVPAPGNPASGYLLTSPDAPAVIMDMGPGVLAAVQEIQDPADAHVIFSHLHTDHCADFASLMVWRRFHPTLAAKSRNLLFGPEDTPNRLGRLSSDEPDGVDDMSDTFAFDAWEERKPELIDNFTVTPFRVVHPIETYALRVEEHRTGASITYSGDSAYTEALIDAARNVDIFLCEATWGTSCDDKAPGMHMCGQDAGRIAAAAGVKKLIITHVPPWIDAEATVAAAAEHFDGPIELARSGMVIEF”, which “soluble on expression in E. coli” value is on record?
Answer: not soluble

Question: For “MGSDKIHHHHHHMSHRFFYRILGMRYLTSTNRKGYARMLFHRFSEKEWNFLKNDENNECFSCLMFYSRTGNAGRLEEEITDMKVDILSREYPPKVYGGAGVHAEELSKVLAERVDVTVRAFDGPRTAADIPAIPGTDPKGSLTVVGYDVPKELEDANGALKTFGVDLQIANDVDADIIHAHTWYACLAGYLAKMLHDTPLVITAHSLEPFRPWKREQLGGGYNLSSWAEKDAYEHADRVIAVSAGMREDILTAYPNLDPDKVVVVHNGITMSQFETPADDDPGWKVFERYNIDRSKPTLLFVGRITRQKGLPYLLQALHFVDPNIQVVLCAGAPDTPEIMEEVKTAFAKLDEERGNIIWIEEMLPKPELNALEHGCDAFICPSIYEPLGIVNLEAMACGLPVVASATGGIPEVVVDGETGYLVPVDQLHDGTGTPTNPDKFVHDMADAINRIMADPEKAKRMGQAGYERARDHFSWESIADKTVKVYEDVLAERK”, which “soluble on expression in E. coli” value is on record?
Answer: not soluble

Question: For “MGCGFSRQHVVKTNVSSFDRELLDLKIQRDSLQQYEQRLSDSLKNYIKLARRLVAENQRQQALVVLQVKHALQKSIEKAQNMRFNLEQVLSEIELKQIETDYVLKLRTGTKLLQSIQKTLSIEEIEHLLEETKEAIEFQNKVTEVLGSFSLMEIDESCEEELEQLETAMFPPVPKRLEKTMTPQVTENMQVKSETAKEYSKQESILLPS”, which “soluble on expression in E. coli” value is on record?
Answer: soluble
